Assay results: article PMC7060837
Values belong to the molecule of their own block, whether it stands above or below them.

Experiments:
[1] = biological target: GMPCPP-stabilized microtubules of porcine brain tubulin (porcine) (UniProt P02550)
[2] = biological target: T1, katanin MEI-1/MEI-2 (wild type) (C. elegans) (UniProt P34808)
T1 sequence 1: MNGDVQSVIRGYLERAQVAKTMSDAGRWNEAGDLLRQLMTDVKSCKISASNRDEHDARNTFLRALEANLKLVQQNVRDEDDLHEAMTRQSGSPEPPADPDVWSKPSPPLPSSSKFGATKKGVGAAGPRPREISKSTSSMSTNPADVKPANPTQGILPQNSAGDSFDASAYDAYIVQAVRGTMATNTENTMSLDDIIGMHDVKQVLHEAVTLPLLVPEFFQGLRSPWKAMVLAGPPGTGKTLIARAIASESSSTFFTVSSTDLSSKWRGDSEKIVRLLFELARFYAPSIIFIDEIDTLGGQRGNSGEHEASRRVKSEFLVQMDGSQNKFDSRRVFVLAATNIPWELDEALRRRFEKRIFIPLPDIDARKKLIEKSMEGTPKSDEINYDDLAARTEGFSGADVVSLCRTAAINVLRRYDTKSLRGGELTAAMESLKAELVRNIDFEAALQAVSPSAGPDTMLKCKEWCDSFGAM
T1 sequence 2: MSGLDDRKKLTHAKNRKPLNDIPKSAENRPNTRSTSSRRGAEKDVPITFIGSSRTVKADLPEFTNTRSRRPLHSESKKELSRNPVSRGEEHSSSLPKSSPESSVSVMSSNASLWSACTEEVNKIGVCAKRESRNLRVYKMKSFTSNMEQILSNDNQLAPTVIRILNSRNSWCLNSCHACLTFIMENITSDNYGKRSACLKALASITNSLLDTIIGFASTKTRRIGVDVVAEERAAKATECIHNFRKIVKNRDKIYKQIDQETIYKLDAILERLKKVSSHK

[3] = biological target: T1, katanin MEI-1/MEI-2 (wild type) (C. elegans); remark: listed apart in the source
[4] = biological target: katanin MEI-1/MEI-2 mutant Glu308 to alanine (C. elegans) (UniProt P34808)
[5] = biological target: GMPCPP-stabilized microtubules of porcine brain tubulin (porcine) (UniProt P02550); remark: listed apart in the source
[6] = biological target: katanin MEI-1/MEI-2 mutant W266A (C. elegans) (UniProt P34808)
[7] = biological target: taxol-stabilized brain microtubules (UniProt P02550)
[8] = biological target: katanin MEI-1/MEI-2 mutant K265A (C. elegans) (UniProt P34808)
[9] = biological target: katanin MEI-1/MEI-2 mutant R267A (C. elegans) (UniProt P34808)

Molecule: Drosophila melanogaster spastin with Arg159Arg160Arg166Arg172Arg174 mutated to alanine (enzyme)
microtubule severing activity of spastin at 20 nM, reduction against wild type [1]: 70%

Molecule: Drosophila melanogaster spastin mutated in the N-terminal positively-charged cluster Arg110Lys111Lys117Arg118 (enzyme)
microtubule severing activity of spastin at 20 nM, reduction against wild type [1]: 50%

B1: katanin MEI-1/MEI-2 mutant Glu308 to alanine (complex)
chain 1: MNGDVQSVIRGYLERAQVAKTMSDAGRWNEAGDLLRQLMTDVKSCKISASNRDEHDARNTFLRALEANLKLVQQNVRDEDDLHEAMTRQSGSPEPPADPDVWSKPSPPLPSSSKFGATKKGVGAAGPRPREISKSTSSMSTNPADVKPANPTQGILPQNSAGDSFDASAYDAYIVQAVRGTMATNTENTMSLDDIIGMHDVKQVLHEAVTLPLLVPEFFQGLRSPWKAMVLAGPPGTGKTLIARAIASESSSTFFTVSSTDLSSKWRGDSEKIVRLLFELARFYAPSIIFIDEIDTLGGQRGNSGEHAASRRVKSEFLVQMDGSQNKFDSRRVFVLAATNIPWELDEALRRRFEKRIFIPLPDIDARKKLIEKSMEGTPKSDEINYDDLAARTEGFSGADVVSLCRTAAINVLRRYDTKSLRGGELTAAMESLKAELVRNIDFEAALQAVSPSAGPDTMLKCKEWCDSFGAM
chain 2: MSGLDDRKKLTHAKNRKPLNDIPKSAENRPNTRSTSSRRGAEKDVPITFIGSSRTVKADLPEFTNTRSRRPLHSESKKELSRNPVSRGEEHSSSLPKSSPESSVSVMSSNASLWSACTEEVNKIGVCAKRESRNLRVYKMKSFTSNMEQILSNDNQLAPTVIRILNSRNSWCLNSCHACLTFIMENITSDNYGKRSACLKALASITNSLLDTIIGFASTKTRRIGVDVVAEERAAKATECIHNFRKIVKNRDKIYKQIDQETIYKLDAILERLKKVSSHK
basal ATPase, reduction against wild type [4]: 87%

B2: katanin MEI-1/MEI-2 Arg128Arg130Lys134Ala triple mutant (complex)
chain 1: MNGDVQSVIRGYLERAQVAKTMSDAGRWNEAGDLLRQLMTDVKSCKISASNRDEHDARNTFLRALEANLKLVQQNVRDEDDLHEAMTRQSGSPEPPADPDVWSKPSPPLPSSSKFGATKKGVGAAGPAPAEISASTSSMSTNPADVKPANPTQGILPQNSAGDSFDASAYDAYIVQAVRGTMATNTENTMSLDDIIGMHDVKQVLHEAVTLPLLVPEFFQGLRSPWKAMVLAGPPGTGKTLIARAIASESSSTFFTVSSTDLSSKWRGDSEKIVRLLFELARFYAPSIIFIDEIDTLGGQRGNSGEHEASRRVKSEFLVQMDGSQNKFDSRRVFVLAATNIPWELDEALRRRFEKRIFIPLPDIDARKKLIEKSMEGTPKSDEINYDDLAARTEGFSGADVVSLCRTAAINVLRRYDTKSLRGGELTAAMESLKAELVRNIDFEAALQAVSPSAGPDTMLKCKEWCDSFGAM
chain 2: MSGLDDRKKLTHAKNRKPLNDIPKSAENRPNTRSTSSRRGAEKDVPITFIGSSRTVKADLPEFTNTRSRRPLHSESKKELSRNPVSRGEEHSSSLPKSSPESSVSVMSSNASLWSACTEEVNKIGVCAKRESRNLRVYKMKSFTSNMEQILSNDNQLAPTVIRILNSRNSWCLNSCHACLTFIMENITSDNYGKRSACLKALASITNSLLDTIIGFASTKTRRIGVDVVAEERAAKATECIHNFRKIVKNRDKIYKQIDQETIYKLDAILERLKKVSSHK
microtubule severing activity, reduction against wild type [5]: 32% | tubulin extraction (nanodamage) activity, reduction against wild type [5]: 51%

B4: katanin MEI-1/MEI-2 mutant K265A (complex)
chain 1: MNGDVQSVIRGYLERAQVAKTMSDAGRWNEAGDLLRQLMTDVKSCKISASNRDEHDARNTFLRALEANLKLVQQNVRDEDDLHEAMTRQSGSPEPPADPDVWSKPSPPLPSSSKFGATKKGVGAAGPRPREISKSTSSMSTNPADVKPANPTQGILPQNSAGDSFDASAYDAYIVQAVRGTMATNTENTMSLDDIIGMHDVKQVLHEAVTLPLLVPEFFQGLRSPWKAMVLAGPPGTGKTLIARAIASESSSTFFTVSSTDLSSAWRGDSEKIVRLLFELARFYAPSIIFIDEIDTLGGQRGNSGEHEASRRVKSEFLVQMDGSQNKFDSRRVFVLAATNIPWELDEALRRRFEKRIFIPLPDIDARKKLIEKSMEGTPKSDEINYDDLAARTEGFSGADVVSLCRTAAINVLRRYDTKSLRGGELTAAMESLKAELVRNIDFEAALQAVSPSAGPDTMLKCKEWCDSFGAM
chain 2: MSGLDDRKKLTHAKNRKPLNDIPKSAENRPNTRSTSSRRGAEKDVPITFIGSSRTVKADLPEFTNTRSRRPLHSESKKELSRNPVSRGEEHSSSLPKSSPESSVSVMSSNASLWSACTEEVNKIGVCAKRESRNLRVYKMKSFTSNMEQILSNDNQLAPTVIRILNSRNSWCLNSCHACLTFIMENITSDNYGKRSACLKALASITNSLLDTIIGFASTKTRRIGVDVVAEERAAKATECIHNFRKIVKNRDKIYKQIDQETIYKLDAILERLKKVSSHK
basal ATPase, reduced (so in the source) [8]: 42% | microtubule stimulated ATPase, reduced (so in the source) [7]: 58%

Second part, the molecule after the results:

stimulation of katanin ATPase by the tail, weaker than βI and βIVb by [2]: 30%
Molecule: βV-tail (peptide)

maximal stimulation of katanin ATPase by the tail peptide (2 to 600 μM) [3]: 2.2 fold
Molecule: VDSVEGEGEEEGEEY [α-tubulin tail peptide]

maximal stimulation of katanin ATPase by the tail peptide (2 to 600 μM) [3]: 3.5 fold
Molecule: DATAEEEGEFEEEAEEEVA [βIVb-tubulin tail peptide]

maximal stimulation of katanin ATPase by the tail peptide (2 to 600 μM) [3]: 3.5 fold
Molecule: DATAEEEEDFGEEAEEEA [βI-tubulin tail peptide]

basal ATPase, reduced (so in the source) [6]: 59% | microtubule stimulated ATPase, reduced (so in the source) [7]: 64%
B3: katanin MEI-1/MEI-2 mutant W266A (complex)
chain 1: MNGDVQSVIRGYLERAQVAKTMSDAGRWNEAGDLLRQLMTDVKSCKISASNRDEHDARNTFLRALEANLKLVQQNVRDEDDLHEAMTRQSGSPEPPADPDVWSKPSPPLPSSSKFGATKKGVGAAGPRPREISKSTSSMSTNPADVKPANPTQGILPQNSAGDSFDASAYDAYIVQAVRGTMATNTENTMSLDDIIGMHDVKQVLHEAVTLPLLVPEFFQGLRSPWKAMVLAGPPGTGKTLIARAIASESSSTFFTVSSTDLSSKARGDSEKIVRLLFELARFYAPSIIFIDEIDTLGGQRGNSGEHEASRRVKSEFLVQMDGSQNKFDSRRVFVLAATNIPWELDEALRRRFEKRIFIPLPDIDARKKLIEKSMEGTPKSDEINYDDLAARTEGFSGADVVSLCRTAAINVLRRYDTKSLRGGELTAAMESLKAELVRNIDFEAALQAVSPSAGPDTMLKCKEWCDSFGAM
chain 2: MSGLDDRKKLTHAKNRKPLNDIPKSAENRPNTRSTSSRRGAEKDVPITFIGSSRTVKADLPEFTNTRSRRPLHSESKKELSRNPVSRGEEHSSSLPKSSPESSVSVMSSNASLWSACTEEVNKIGVCAKRESRNLRVYKMKSFTSNMEQILSNDNQLAPTVIRILNSRNSWCLNSCHACLTFIMENITSDNYGKRSACLKALASITNSLLDTIIGFASTKTRRIGVDVVAEERAAKATECIHNFRKIVKNRDKIYKQIDQETIYKLDAILERLKKVSSHK

microtubule stimulated ATPase, reduction against wild type [7]: 60% | basal ATPase, reduction against wild type [9]: 51%
B5: katanin MEI-1/MEI-2 mutant R267A (complex)
chain 1: MNGDVQSVIRGYLERAQVAKTMSDAGRWNEAGDLLRQLMTDVKSCKISASNRDEHDARNTFLRALEANLKLVQQNVRDEDDLHEAMTRQSGSPEPPADPDVWSKPSPPLPSSSKFGATKKGVGAAGPRPREISKSTSSMSTNPADVKPANPTQGILPQNSAGDSFDASAYDAYIVQAVRGTMATNTENTMSLDDIIGMHDVKQVLHEAVTLPLLVPEFFQGLRSPWKAMVLAGPPGTGKTLIARAIASESSSTFFTVSSTDLSSKWAGDSEKIVRLLFELARFYAPSIIFIDEIDTLGGQRGNSGEHEASRRVKSEFLVQMDGSQNKFDSRRVFVLAATNIPWELDEALRRRFEKRIFIPLPDIDARKKLIEKSMEGTPKSDEINYDDLAARTEGFSGADVVSLCRTAAINVLRRYDTKSLRGGELTAAMESLKAELVRNIDFEAALQAVSPSAGPDTMLKCKEWCDSFGAM
chain 2: MSGLDDRKKLTHAKNRKPLNDIPKSAENRPNTRSTSSRRGAEKDVPITFIGSSRTVKADLPEFTNTRSRRPLHSESKKELSRNPVSRGEEHSSSLPKSSPESSVSVMSSNASLWSACTEEVNKIGVCAKRESRNLRVYKMKSFTSNMEQILSNDNQLAPTVIRILNSRNSWCLNSCHACLTFIMENITSDNYGKRSACLKALASITNSLLDTIIGFASTKTRRIGVDVVAEERAAKATECIHNFRKIVKNRDKIYKQIDQETIYKLDAILERLKKVSSHK
